According to paper PMC4038614:

Assays:
[1] = target: Ly49C^B6 expressed on BWZ.36 cells (BWZ-Ly49C) (mouse (B6)) (UniProt Q64329); assay: flow cytometry on cells; association time course: BWZ transfectants with saturating m157-Fc for 30 sec/1 min to 40 min at 4°C; MFI at 40 min = 100%
[2] = target: Ly49H^B6 expressed on BWZ.36 cells (BWZ-Ly49H) (mouse (B6)) (UniProt Q60682); assay: as above
[3] = target: Ly49C^B6 expressed on BWZ.36 cells (BWZ-Ly49C) (mouse (B6)) (UniProt Q64329); assay: flow cytometry on cells; dissociation: BWZ transfectants labelled with saturating m157-Fc at 4°C, washed, incubated at 37°C for 5 to 90 min with excess anti-m157 antibody 6H121 to prevent re-binding; MFI at 0 min = 100%
[4] = target: Ly49H^B6 expressed on BWZ.36 cells (BWZ-Ly49H) (mouse (B6)) (UniProt Q60682); assay: as above
[5] = target: Ly49H (B6 allele), endogenous on splenic NK cells (mouse (endogenous in splenic NK cells)) (UniProt Q60682)

UniProt Q64329, sequence (Q64329 whole entry): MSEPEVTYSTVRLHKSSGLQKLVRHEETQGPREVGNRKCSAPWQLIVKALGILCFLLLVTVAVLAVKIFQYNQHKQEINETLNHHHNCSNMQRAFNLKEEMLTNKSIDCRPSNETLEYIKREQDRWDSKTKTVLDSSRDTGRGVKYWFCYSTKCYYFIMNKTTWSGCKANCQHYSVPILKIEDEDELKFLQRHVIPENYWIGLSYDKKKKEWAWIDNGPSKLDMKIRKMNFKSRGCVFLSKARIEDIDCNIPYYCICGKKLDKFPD

m157^G1F-Fc soluble fusion protein (Fc fusion)
time to 50% of maximal binding [1]: 5 min | time to 50% of maximal binding [2]: 7 min | time to 50% dissociation [3]: 20 min | percent still bound after 90 min [4]: > 50% | IFN-γ production of Ly49H^+,C^- B6 NK cells exposed to RMA cells expressing m157^G1F; abolished by blocking anti-Ly49H 3D10 [5]: 15 % IFN-γ^+ | degranulation (LAMP1^+) of Ly49H^+,C^- B6 NK cells exposed to RMA cells expressing m157^G1F; abolished by blocking anti-Ly49H 3D10 [5]: 40 % LAMP1^+
